Patent US20240245800A1, “HIGHLY SPECIFIC RABBIT SINGLE -DOMAIN ANTIBODIES FOR DRUG DELIVERY IN IMMUNOTHERAPY APPLICATIONS” (TECHNOPHAGE, INVESTIGAÇÃO E DESENVOLVIMENTO EM …, priority 2021, published 2024)
Entries after “also recorded” stand apart in the source; their conditions may differ.

Columns and labels:
CLBL-1 cell extracts = experiment: ELISA screening of anti-cNHL VL sdAb clones; assay type: binding, canine; conditions: clone supernatants, CLBL-1 extracts
Experimental: After the phage display selection, in order to express and select the best anti-cNHL VL sdAbs, phagemid DNA derived from the in vivo output selection was cloned into a PT7-PL vector and transformed into an E. coli strain BL21. Then, individual clones were auto induced, and the supernatant tested in ELISA assays against CLBL-1 and Jurkat cell extracts. To select the best lead candidates, three parameters were evaluated: binding against cNHL, expression yields, and unspecific binding. […] After selection, to characterize the selected clones, the 43 best lead candidates were analysed by sanger sequencing (FIG. 6B). To get further insights of the enriched sequences during the in vivo phage display selection, we performed next generation sequencing (NGS) of the biopanning repertoires. NGS allows massive sequence analysis of the panning population, enabling a genomic assessment of the library diversity and frequency of each clone. Two samples were sequenced: biopanning from the CLBL-1 tumour models and initial immune VL sdAb cNHL library (FIG. 7). Upon bioinformatic analysis of the NGS data, we were able to determine the diversity of each sample and identify the most represented clones. A total of 34880 sequences were obtained for the biopanning from the CLBL-1 tumours. The NHL library obtained a total of 48864 sequences. The number of singletons, consisting of the sequences with a single occurrence, varied between samples, ranging from 76.8% in the library, and 33.3% in the in vivo biopanning from the CLBL-1. Through the comparison of the sequence prevalence between the biopannings and the library, we were able to verify that the number of occurrences in each sequence was higher in the biopanning clones. […] By comparing ELISA data, sanger sequencing and NGS analysis, the six best clones (A12, C8, C5, E1, E2, and B12) were produced and purified. Due to its binding characteristics and production properties, C5 sdAb clone was chosen to be thoroughly characterized and used in the development of the proposed ADC.
To express and select anti-NHL-sdAbs, phagemid DNA encoding selected anti-cNHL sdAbs was cloned into PT7-PL (PT7-peptide leader) vector and transformed into E. coli strain BL21. Individual colonies were inoculated in 100 μl of Super Broth (SB) medium containing Overnight Express™ Autoinduction System (Novagen®) and 100 μg/ml of ampicillin and incubated overnight at 30° C. Next day, 40 μl of BugBuster (Roche) containing anti-protease cocktail-EDTA free inhibitors (Roche) were added and incubated for 30 min at 4° C. Then, plates were centrifuged at 1200 rpm and the supernatant was tested in ELISA assays. Three different conditions were assessed: binding to the sdAbs to the antigen, expression level and unspecific binding. After coating the wells with CLBL-1 cell extracts or Raji cell extracts for 1 h at 37° C., wells were blocked with 3% BSA in PBS. Then, wells were washed with PBS and clones were added and incubated for 1 h, at 37° C. Next, plates were washed and incubated with anti-HA HRP antibody (Roche). Finally, after 1 h incubation, plates were washed and ABTS (Roche) was added and optical density at 405 nm was measured at different time points. To evaluate the expression level, the same protocol was applied, excluding antigen coating.
For unspecific binding, antigen was replaced by 3% BSA. Rabbit sera and anti-CD20 antibody were used as positive controls. BL21 cell extracts were used as negative controls. In the end, the ten best individual clones were sequenced at Eurofins company. Sequence analysis was performed using the Vector Nti software (Invitrogen). The antibody frameworks, CDRs and the amino acid numbering and sequences followed the rules described by Kabat et al. (1991) Sequences of proteins of immunological interest. Bethesda, MD, U.S. Dept. of Health and Human Services, Public Health Service, National Institutes of Health. […]

CLBL-1 cells [1] = experiment: Immunofluorescence binding/internalization of C5 in CLBL-1 cells; assay type: cell-based, canine; conditions: 5 μM, 90 minutes at 37° C.
Experimental: (§1) FIG. 8. Binding and internalization characterization of C5 VL sdAb. C5 binding and internalization properties against CLBL-1 cells were evaluated by cytometry and immunofluorescence. A) For flow cytometry analysis, 1×10^6 of CLBL-1 cells were incubated with Live/Dead reagents for 30 minutes. Then, 3 μM of C5 were incubated with the cells for different timepoints at 37° C. After, cells were washed, fixed, permeabilized, and incubated for 30 min with anti-HA antibody, washed twice and incubated with anti-rat Alexa Fluor-488. […] B) By contrast, no binding of C5 was detected with Jurkat cells. C) To confirm the binding of C5 to the CLBL-1 verified by flow cytometry, we evaluated its distribution on the cells by immunofluorescence assay. […] Representative microphotographs with C5 (green) and DAPI stained-nuclei (blue) are shown.
1.5×10^5 of CLBL-1 cells were plated on ibidi μ-Slide 8 Well Glass Bottom (#80827, Ibidi, Germany) and incubated for 24 h at 37° C. in a humidified atmosphere of 5% CO2. Then, 5 μM of VL was added to the cells and incubated for 90 minutes at 37° C. […] In the Airyscan acquisition mode, ×1.80 zoom images were recorded at 1024×1024 resolution. […]

CLBL-1 cells [2] = experiment: Flow cytometry binding of C5 VL sdAb to CLBL-1 cells; assay type: cell-based, canine; conditions: 3 μM C5, 37° C., different timepoints
Experimental: as §1
To evaluate the binding of the VL C5 to the CLBL-1 cells, a FACS analysis was performed. […]
The C5 VL sdAb binding and cellular internalization properties towards CLBL-1 cells were studied by cytometry analysis and immunofluorescence. […] Live/dead reagent was used to exclude dead cells and the background noise was also evaluated in the control with the secondary antibody (data not shown). To better characterize the binding of the C5 to the CLBL-1 cells, we further evaluated the internalization of the C5 sdAb on the cells using an immunofluorescence assay. […]

B1: C5: rabbit derived anti-cNHL VL sdAb clone, SEQ. ID. 3; ^99mTc radiolabelled for biodistribution (antibody, listed as Oryctolagus cuniculus, V domains shown)
VL: ELDLTQTPSPVSASVGGTATINCQASQSVYNNYWWAWYQQRPGHPPKLLIYETSKLASGVPSRFKGSGSGTQFTLTIIDVQCDDAATYVCAGGYGTVIDNAFGGGTELEIL
modifications: 99mTc(CO)3 radiolabel
notes: ID; ^99mTc radiolabelled for biodistribution
ELISA signal against NHL cells (CLBL-1 cell extracts): best results
distribution/internalization in CLBL-1 cells (immunofluorescence) (CLBL-1 cells [1]): internalization into the cytoplasm; also recorded: high density of Alexa Fluor-488 labelled C5 labelled in the perinuclear region
distribution/internalization in CLBL-1 cells (immunofluorescence) (CLBL-1 cells [1]; listed as VL C5): internalization into the cytoplasm
binding to CLBL-1 cells (flow cytometry) (CLBL-1 cells [2]): specifically binds; also recorded: demonstrated to bind
binding to CLBL-1 cells (flow cytometry) (CLBL-1 cells [2]; listed as VL C5): shown to bind to the cells, increasing its interaction with time
